Results reported in patent publication US9416353B2, “Covalent tethering of functional groups to proteins and substrates therefor” (Promega Corporation, priority 2004, dated 2016).
Changes are numbered by the printed parent chain. Names and notes keep the numbering of the source.

B1: BlaZ.N170Q (protein, UniProt P00807 25-281, looked up, variant N170Q)
Beta-lactamase: KELNDLEKKYNAHIGVYALDTKSGKEVKFNSDKRFAYASTSKAINSAILLEQVPYNKLNKKVHINKDDIVAYSPILEKYVGKDITLKALIEASMTYSDNTANNKIIKEIGGIKKVKQRLKELGDKVTNPVRYEIELNYYSPKSKKDTSTPAAFGKTLNKLIANGKLSKEQKKFLLDLMLNNKSGDTLIKDGVPKDYKVADKSGQAITYASRNDVAFVYPKGQSEPIVLVIFTNKDNKSDKPNDKLISETAKSVMKEF
B2: DhaA.WT: wild-type Rhodococcus rhodochrous dehalogenase (DhaA), generally GST at the N-terminus and FLAG at the C-terminus (protein, UniProt P0A3G2 1-293, looked up)
Haloalkane dehalogenase: MSEIGTGFPFDPHYVEVLGERMHYVDVGPRDGTPVLFLHGNPTSSYLWRNIIPHVAPSHRCIAPDLIGMGKSDKPDLDYFFDDHVRYLDAFIEALGLEEVVLVIHDWGSALGFHWAKRNPERVKGIACMEFIRPIPTWDEWPEFARETFQAFRTADVGRELIIDQNAFIEGALPKCVVRPLTEVEMDHYREPFLKPVDREPLWRFPNELPIAGEPANIVALVEAYMNWLHQSPVPKLLFWGTPGVLIPPAEAARLAESLPNCKTVDIGPGLHYLQEDNPDLIGSEIARWLPAL
modifications: N-terminal GST, C-terminal FLAG tag
B3: DhaA.H272F H11: first generation DhaA.H272F mutant with K175M and C176G (protein, UniProt P0A3G2 1-293, looked up, variant K175M C176G H272F)
Haloalkane dehalogenase: B2 Haloalkane dehalogenase with K175M, C176G, H272F
B4: DhaA.H272A: DhaA mutant, His272 replaced with Ala (protein, UniProt P0A3G2 1-293, looked up, variant H272A)
Haloalkane dehalogenase: B2 Haloalkane dehalogenase with H272A
B5: DhaA.H272F: DhaA mutant, catalytic His272 replaced with Phe (protein, UniProt P0A3G2 1-293, looked up, variant H272F)
Haloalkane dehalogenase: B2 Haloalkane dehalogenase with H272F
B6: DhaA.H272F YL: DhaA.H272F based mutant with Y273L (protein, UniProt P0A3G2 1-293, looked up, variant H272F Y273L)
Haloalkane dehalogenase: B2 Haloalkane dehalogenase with H272F, Y273L
B7: DhaA.H272G: DhaA mutant, His272 replaced with Gly (protein, UniProt P0A3G2 1-293, looked up, variant H272G)
Haloalkane dehalogenase: B2 Haloalkane dehalogenase with H272G
B8: DhaA.H272F YC: DhaA.H272F based mutant with Y273C (protein, UniProt P0A3G2 1-293, looked up, variant H272F Y273C)
Haloalkane dehalogenase: B2 Haloalkane dehalogenase with H272F, Y273C
B9: DhaA.H272F YM: DhaA.H272F based mutant with Y273M (protein, UniProt P0A3G2 1-293, looked up, variant H272F Y273M)
Haloalkane dehalogenase: B2 Haloalkane dehalogenase with H272F, Y273M
B10: DhaA.H272Q: DhaA mutant, His272 replaced with Gln (protein, UniProt P0A3G2 1-293, looked up, variant H272Q)
Haloalkane dehalogenase: B2 Haloalkane dehalogenase with H272Q

Columns and labels:
[1] = Hydrolysis of FAP by GST-BlaZ (WT or mutants); type: biochemical; details: up to 60 minutes of co-incubation
Description: The chromogenic substrate 6-β-[(Furylacryloyl)amido]penicillanic acid triethylamine salt (FAP) was purchased from Calbiochem (La Jolla, Calif.). […] All assays were performed at 25° C. in 0.1 M potassium phosphate buffer at pH 6.8.

[2] = pH-indicator dye assay of hydrolysis of Cl-alkanes by DhaA (WT or mutant); type: biochemical; details: 0.1 mg/ml of enzyme, 10 mM substrate, pH 7.0-8.2
Description: To study the effect of a point mutation on the activity of DhaA (WT or mutant) hydrolysis of Cl-alkanes, a pH-indicator dye system as described by Holloway et al. (1998) was employed.

[3] = DhaA capture using immobilized biotin chloroalkane substrates (streptavidin plates, ELISA-type); type: binding; details: for reaction with immobilized biotin-PEG4-14-Cl: titration
Description: Using an excess of substrate (about 2 μmol), the plates could bind approximately 75 μmol of biotin per well. […] Reactions between immobilized substrate and mutant DhaAs were performed using purified GST-DhaA-Flag fusions. Various concentrations of protein (100 μL; diluted in PBSTB) were incubated with immobilized substrate for various times at 25° C., and the reactions were stopped by emptying the plates and washing 4× with PBST. To detect bound DhaA, 100 μL anti-GST-HRP (Amersham) was added to each well at a 1:10,000 dilution (in PBSTB) and the plates incubated for 1 hour at 25° C.

[4] = In vivo labeling of DhaA mutants expressed in CHO-K1 cells (cell-to-gel analysis); type: cell-based; details: 5 μM substrate
Description: (§1) Proteins (2-10 μl/lane) were resolved on SDS-PAGE (4-20% gradient gels).

[5] = Thermostability analysis of purified DhaA mutants (residual labeling activity, FP); type: physicochemical; details: for thermostability (residual activity): 60 minute incubations at various temperature
Description: The thermostability profiles of the DhaA mutants were determined by measuring the residual activity of the purified proteins following 15, 30 or 60 minute incubations at 4, 22, 30, 37, 42, 50 or 60° C. The FP assay was performed at room temperature (about 25° C.). […] For each clone, the labeling rate (slope of the linear range) was calculated for each condition. The rate observed following a 15 minute incubation at 4° C. was arbitrarily assigned as 100% activity. The residual activity (%) was calculated for each condition. To determine stability, for each incubation time, the % of residual activity was plotted against the incubation temperatures. To calculate half-life, for each incubation temperature, the % of residual activity was plotted against the incubation time. The time where 50% activity was lost was extrapolated from the graph.

[6] = MagneGST assay
Description: Bacterial colonies were picked into 96-well plates containing LB+Amp and incubated with shaking at 30° C. The cultures were diluted 1:20 into 96 well plates containing fresh TB medium, Amp and 0.1 mM IPTG. The plates were incubated at 30° C. with shaking overnight. The 96 well plates containing the IPTG induced cultures were centrifuged and supernatants removed. DhaA mutants were normalized for protein concentration by saturating protein capture on MagneGST™ PMPs. […] The plates were shaken at about 900 rpm for 10 minutes at room temperature. The particles were washed three times with PBST using a MagnaBot® 96 magnetic separation device. The wash solution was removed and MagneGST™ elution solution was added and the plates were allowed to shake at room temperature (about 900 rpm for 5 minutes). Supernatants were transferred to a new, flat bottom, transparent 96 well plate and the fluorescence intensity was measured using an excitation wavelength at 550 nm and an emission wavelength at 580 nm.
Four colonies at random of each identified hit were inoculated into 200 μL LB+Amp and grown overnight at 30° C. in flat bottom 96 well plates. Overnight cultures were diluted 1:50 into 200 μL TB ampicillin supplemented with 0.1 mM IPTG and grown overnight at 30° C. and 37° C. Induced cultures were re-assayed using the MagneGST™ based screen.

[7] = In vivo stability of DhaA mutants in transiently transfected CHO-K1 cells; type: cell-based; details: 12, 24 and 48 hours post-transfection
Description: as §1

[8] = Precipitation of DhaA.WT and mutants with (NH4)2SO4; type: physicochemical; details: 2 hours, 4° C.
Description: Aliquots of the supernatant obtained from E. coli expressing DhaA (WT or one of the mutants) were treated with increasing concentrations of (NH4)2SO4. The proteins were exposed to each (NH4)2SO4 concentration for 2 hours (4° C.), pelleted by centrifugation, dialyzed overnight against buffer A, and resolved on SDS-PAGE.

[9] = type: binding; details: biotin-PEG4-14-Cl substrate

Molecule | thermostability (residual activity) [5] | (NH4)2SO4 concentration that precipitates the protein [8] | signal relative to the parental clones [9] | further results
B1 |  |  |  | hydrolysis of FAP [1]: could not be detected
B2 |  |  |  | activity with 1-Cl-butane [2]: 5 units/mg of protein
B3 | retained significant labeling activity following incubation as high as 50 °C |  |  | reaction with immobilized biotin substrates ([3]; all biotin substrates tested): reacted poorly; in vivo labeling performance compared to parent DhaA.H272F [4]: superior performance characteristics; half-life ([5]; at 50° C.): 58 min; signal relative to the respective parents [6]: considerably higher signal; production of active protein (fluorescent signal after labeling) [7]: more active protein after 48 hours
B4 |  | 10% |  | 
B5 | stable up to temperatures of 40 °C |  |  | 
B6 | relatively unstable at temperatures above 30 °C |  | significantly improved | reaction with immobilized biotin-PEG4-14-Cl [3]: react most efficiently
B7 |  | 10% |  | 
B8 | relatively unstable at temperatures above 30 °C |  | significantly improved | 
B9 | relatively unstable at temperatures above 30 °C |  | significantly improved | reaction with immobilized biotin-PEG4-14-Cl [3]: react most efficiently
B10 |  | 10% |  | 
